{"source": "patent US20260201022A1", "binders": {"B1": {"name": "αBauA mouse monoclonal antibody against BauA of Acinetobacter baumannii (hybridoma subclone 12C1) (antibody, V domains shown)", "VH": "EVQLQESGADLVRPGSSVKISCKASGYAFSNYWMHWMKQRPGQGLEWIGQIYPGDGDTNYNGKFKGKATLTADKSSSSAYMQLSSLISEDSAVYFCARGDFYYGSPFAYWGQGTLVTVSA", "VL": "DIVMTQAAPSVPVTPGESVSISCRSSKSLLHSNGNTYLYWFLQRPGQSPQLLIYRMSNLASGVPDRFSGSGSGTAFTLRISRVEAEDVGVYYCMQHLEYPLTFGAGTKLELK"}}, "target": "BauA on the surface of the strains of the A. baumannii diversity set (100 strains, MRSN)", "assay": "native ELISA on the diversity set of 100 A. baumannii strains", "data": [{"binder": "B1", "values": [{"measurement": "percent of strains recognized", "value": "> 68", "unit": "%"}]}]}
